In paper PMC11057775, “Structural characterization of two nanobodies targeting the ligand-binding pocket of human Arc” (PLOS ONE, 2024):
Where no end group is shown, it is not given here.

Assays:
[1] = target: T1, Arc N-lobe (Arc-NL, Arc 207-277) (human, UniProt Q7LC44); assay: ITC; displacement assay: 100 μM E5/H11 (titrant) into 10 μM Arc-NL saturated with 100 μM P1, TBS, 20 °C; apparent constants, one replicate; details: both partners purified
T1 construct: Activity-regulated cytoskeleton-associated protein (Arc), N-lobe, residues 207-277; identical for human, rat and mouse Arc-NL; construct His6-MBP-TEV-NL in pETMBP_1a; 8.9 kDa as printed; also called human Arc N-lobe; source: E. coli BL21(DE3), purified (Ni-NTA, tag cleavage, reverse Ni-NTA, SEC); not shown: His6, N-terminal, cleaved; MBP, N-terminal, cleaved

[2] = target: T2, full-length rat Arc with a poly-Ala mutation in residues 113-119 (rArcFL-7A) (rat, UniProt Q63053, poly-Ala mutation in residues 113-119); assay: SEC-MALS + other: SEC-SAXS; rArcFL-7A alone and with E5, C11 or both; 20 mM Tris pH 7.5, 150 mM NaCl, 0.5 mM TCEP; 1:1.3 protein-to-nanobody ratio for SAXS; details: both partners purified
T2 construct: Activity-regulated cytoskeleton-associated protein (Arc), rat, full length, residues 113-119 replaced by alanines; expressed with an N-terminal His6-MBP fusion in pHMGWA; also called flArc dimeric mutant; dimeric full-length Arc; not shown: His6, N-terminal, cleaved; MBP, N-terminal, cleaved

[3] = target: T1, Arc N-lobe (Arc-NL, Arc 207-277); assay: ITC; 15 μM E5/H11 (titrant) into 1.5 μM Arc-NL (titrate), TBS (20 mM Tris-HCl pH 7.5, 150 mM NaCl), 20 °C, 1:1 binding model, four replicates; details: both partners purified
[4] = target: T3, Arc N-lobe (Arc-NL, Arc 207-277) (human, UniProt Q7LC44 207-277); assay: ITC; 2 mM P1 (titrant) into 200 μM Arc-NL (titrate), TBS, 20 °C, three sequential titrations concatenated, 1:1 binding model, one replicate; details: both partners purified
T3 construct: Activity-regulated cytoskeleton-associated protein (Arc), N-lobe, residues 207-277; identical for human, rat and mouse Arc-NL; construct His6-MBP-TEV-NL in pETMBP_1a; 8.9 kDa as printed; also called human Arc N-lobe; source: E. coli BL21(DE3), purified (Ni-NTA, tag cleavage, reverse Ni-NTA, SEC); not shown: His6, N-terminal, cleaved; MBP, N-terminal, cleaved
T3 sequence (looked up): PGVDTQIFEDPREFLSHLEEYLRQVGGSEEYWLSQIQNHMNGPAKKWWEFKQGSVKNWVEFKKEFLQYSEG

[5] = target: the molecule itself; assay: SEC-MALS + other: SEC-SAXS; rArcFL-7A alone and with E5, C11 or both; 20 mM Tris pH 7.5, 150 mM NaCl, 0.5 mM TCEP; 1:1.3 protein-to-nanobody ratio for SAXS

| Binder | dH-App (Arc-NL saturated with P1) [1] [kcal/mol] | Kd [3] [nM] | dH [3] [kcal/mol] | other results |
| --- | --- | --- | --- | --- |
| anti-Arc nanobody E5 (VHH, alpaca nanobody; 12.8 kDa as printed; provided by Nanotag Biotechnologies in the vector pNT1433 (His6-TEV-E5); CDR3 holds a PxW motif; source: E. coli BL21(DE3), purified (Ni-NTA, tag cleavage, reverse Ni-NTA, SEC); not shown: His6, N-terminal, cleaved) VHH: EVQLQESGGGLVQAGGSLRLSCAASGSIFSGNAMGWYRQAPGKQREVVAVISAGNSSNYVDSVKGRFTISRDNAKNTVYLQMNSLKPEDTAVYYCNVVKRGPQWGMEWGKGTLVTVSS | -12 | 0.99 | -23.2 | stoichiometry Arc:E5:C11 of the ternary complex [2]: 1 E5 per Arc chain (2 Arc : 2 E5 : 2 C11); stoichiometry N [2]: 1 E5 per Arc chain (2 E5 : 2 Arc) |
| YGRKKRRQRRRGGRIPSYRYR (also: FITC label, position not given here, stretch of the transmembrane AMPAR regulatory protein γ2 (TARPγ2, stargazin); the split into TAT, linker and TARPγ2 stretch is mine; also called TARPγ2-derived peptide; source: synthetic peptide, bought: GenScript Biotech) [FITC-labelled, TAT-tagged TARPγ2 peptide (forward peptide P1)] |  |  |  | Kd [4]: 5310 nM; dH [4]: -14.9 kcal/mol |
| anti-Arc nanobody H11 (VHH, alpaca nanobody; 14.1 kDa as printed; provided by Nanotag Biotechnologies in the vector pNT1433 (His6-TEV-H11); CDR3 holds a PxY motif; source: E. coli BL21(DE3), purified (Ni-NTA, tag cleavage, reverse Ni-NTA, SEC); not shown: His6, N-terminal, cleaved) VHH: EVQLLESGGGLVQAGDSLRLSCAASGRTFSAYAMGWFRQAPGKEREFVAAISWSGNSTYYADSVKGRFTISRDNAKNTVYLQMNSLKPEDTAIYYCAARKPMYRVDISKGQNYDYWGQGTQVTVSS | -10.3 | 1.14 | -23.5 |  |
| full-length rat Arc with a poly-Ala mutation in residues 113-119 (rArcFL-7A) (natural protein, UniProt Q63053 1-396, looked up, Activity-regulated cytoskeleton-associated protein (Arc), rat, full length, residues 113-119 replaced by alanines; expressed with an N-terminal His6-MBP fusion in pHMGWA; also called flArc dimeric mutant; dimeric full-length Arc; not shown: His6, N-terminal, cleaved; MBP, N-terminal, cleaved) MELDHMTTGGLHAYPAPRGGPAAKPNVILQIGKCRAEMLEHVRRTHRHLLTEVSKQVERELKGLHRSVGKLENNLDGYVPTGDSQRWKKSIKACLCRCQETIANLERWVKREAAAAAAAFYRLERWADRLESMGGKYPVGSEPARHTVSVGVGGPEPYCQEADGYDYTVSPYAITPPPAAGELPEQESVGAQQYQSWVPGEDGQPSPGVDTQIFEDPREFLSHLEEYLRQVGGSEEYWLSQIQNHMNGPAKKWWEFKQGSVKNWVEFKKEFLQYSEGTLSREAIQRELDLPQKQGEPLDQFLWRKRDLYQTLYVDAEEEEIIQYVVGTLQPKFKRFLRHPLPKTLEQLIQRGMEVQDGLEQAAEPSVTPLPTEDETEALTPALTSESVASDRTQPE |  |  |  | stoichiometry N [5]: 2 |
